In PMC5862951:

Target: His6-tagged rat SLFN13 N′-domain, residues 14–353 (crystallised rSLFN13_(14–353)) (rat) (UniProt Q5U311)
Test: right-angle light scattering (RALS) of eluted protein; purified protein in solution; elution with RALS detection; conditions not shown (Supplementary Fig. 2a)

- stoichiometry N: 2
Substance: His6-tagged rat SLFN13 N′-domain, residues 14–353 (crystallised rSLFN13_(14–353)) (from UniProt Q5U311 14-353) (domain or fragment)
